Sequences and labels used below:
B1: TPR 5TU (parent)
chain: GGAUCUUCUCGAUCUAACAAAAAAGACAAAUCUGCCACAAAGCUUGAGAGCAUCUUCGGAUGCAGAGGCGGCAGCCUUCGGUGGCGCGAUAGCGCCAACGUUCUCAACUAUGACACGCAAAACGCGUGCUCCGUUGAAUGGAGUUUAUCAUG

The source of these data is the RNAGym collection of RNA variant scans (doi:10.1073/pnas.2313332121).

Variants at the floor of the assay were thinned out. A value given as a limit tells only on which side of the number the result lay.

The variants in this data set derive from B1. Briefly: polymerase ribozyme fitness, log enrichment relative to wild type (log ratio); higher = more active; in vitro selection for triplet polymerase activity. Summed up:
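To select mutant libraries of each subunit of a heterodimeric triplet polymerase ribozyme, built by PCR and transcribed, each was annealed with a biotinylated primer, partner subunit and triplets, then incubated frozen at −7 °C. Extended constructs were gel-excised, captured on streptavidin beads and amplified by RT-PCR, in one round carried out in triplicate. Illumina sequencing of input and output libraries kept genotypes with ≥10 input reads and ≥1 read per output. Fitness is the base-2 logarithm of genotype enrichment relative to wild-type enrichment, from inverse-variance-weighted replicate averages.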
Take GGAUCUUCUCGAUCUAACAAAAAAGACAAAUCUGCCAAAAAGCUUGAGAGCAUCUUCGGAUGCAGAGGCGGCAGCCUUCGGUGGCGCGAUAGGGCCAACGUUCUCAACUAUGACACGCAAAAGGCGUGCUCCGUUGAAUGGAGUUUAUCAUG [C38A C93G C123G]: the “polymerase ribozyme fitness (log ratio)” value was -3.67.

For GGAUCUUCUCGAUCUAACAAAAAAGACAAAUCUGCCAAAAAGCUUGAGAGCAUCUUCGGAUGCAGAGGCGGCAGCCUUCGGUGGCGCGAUAGCACCAACGUUCUCAACUAUGACACGCAAAAUGCGUGCUCCGUUGAAUGGAGUUUAUCAUG [C38A G94A C123U], the “polymerase ribozyme fitness (log ratio)” value was -0.611.

In the case of GGAUCUUCUCGAUCUAACAAAAAAGACAAAUCUGCCAAAAAGCUUGAGAGCAUCUUCGGAUGCAGAGGCGGCAGCCUUCGGUGGCGCGAUAGAGCCAACGUUCUCAACUAUGACACGCAAAACGCGUGCUCCGUUGAAUGGAUUUUAUCAUG [C38A C93A G143U], the “polymerase ribozyme fitness (log ratio)” value was -4.12.

For GGAUCUUCUCGAUCUAACAAAAAAGACAAAUCUGCCAAAAAGCUUGAGAGCAUCUUCGGAUGCAGAGGCGGCAGCCUUCGGUGGCGCGAUAGCGCGAACGUUCUCAACUAUGACACGCAAAACGCGUGCUCCGUUGAAUGGAGUUUAUCAUG [C38A C96G], the “polymerase ribozyme fitness (log ratio)” value was -0.458.

Consider GGAUCUUCUCGAUCUAACAAAAAAGACAAAUCUGCCAAAAAGCUUGAGAGCAACUUCGGUUGCAGAGGCGGCAGCCUUCGGUGGCGCGAUAGGGCCAACGUUCUCAACUAUGACACGCAAAACGCGUGCUACGUUGAAUGCAGUUUAUCAUG [C38A U53A A60U C93G C131A G141C], for which the “polymerase ribozyme fitness (log ratio)” value was -3.94.

Consider GGAUCUUCUCGAUCUAACAAAAAAGACAAAUCUGCCAAAAAGCUUGAGAGCAUCUUCUGAUGCAGAGGCGGCAGCCUUCGGUGGCGCGAUAGCGGCAACGUUCUCAACUAUGACACGCAAAACGCGUGCUCCGUUGAAUGGAGUUUAUCAUG [C38A G58U C95G], for which the “polymerase ribozyme fitness (log ratio)” value was -1.52.

GGAUCUUCUCGAUCUAACAAAAAAGACAAAUCUGCCAAAAAGAUUGAGAGCAUCAUCGGAUGCAGAGGCGGCAGCCUUCGGUGGCGUGAUAGCGCCAACGUUCUCAACUAUGACACACAAAACGCGUGCUCCGUUGAAUGGAGUUUAUCAUG [C38A C43A U55A C87U G117A]: the “polymerase ribozyme fitness (log ratio)” value is at most -4.2.

GGAUCUUCUCGAUCUAACAAAAAAGACAAAUCUGCCAAAAAGCUUGAGAGCAUCAUCGGAUGCAGAGGCGGCAGCCUUCGGUGGCGCGAUAGCGCCAACGUUCUCAACUAUGACACGCAAAACGCGUGCUCCGUUGAAUGGAGUUUAUCAUG [C38A U55A]: the “polymerase ribozyme fitness (log ratio)” value was -0.143.

GGAUCUUCUCGAUCUAACAAAAAAGACAAAUCUGCCAAAAAGCUUGAGAGCAUCUUCGGAUGCAGAGGCGGCAGCAUUCGGUGGCGCGAUAUCGCCAACGUUCUCAACUAUGACACGCAAAACGCGUGCUCCGUUAAAUGGAGUUUAUCAUU [C38A C76A G92U G136A G152U]: the “polymerase ribozyme fitness (log ratio)” value is at most -4.2.

Consider GGAUCUUCUCGAUCUAACAAAAAAGACAAAUCUGCCAAAAAGCUUGAGAGCAUCUUCGGAUGCAGAGGCGGCAGCCUUCGGUGGCGCGAUAGCGCCAACGUUCUCAACUAUGACACGUACAACGCGUGCUCCGUUGAAUGAAGUUUAUCAUG [C38A C118U A120C G141A], for which the “polymerase ribozyme fitness (log ratio)” value is -0.525.

Turning to GGAUCUUCUCGAUCUAACAAAAAAGACAAAUCUGCCAAAAAGCUUGACAGCAUCUUCGGAUGCAGAGGCGUCAGCCUUCGGUGGCGCGAUAGCGCCAACGUUCUCAACUAUGACACGCAAAACGCGUGCUCCGUUGAAUGGAGUUUAUCAUG [C38A G48C G71U], the “polymerase ribozyme fitness (log ratio)” value is at most -4.2.

As for GGAUCUUCUCGAUCUAACAAAAAAGACAAAUCUGCCAAAAAGCUUGAGAGCAUCUUCGGAUGCAGAGGCGGCAGCCUUCGGUGGCGCGAUAGCUCCAACGUUCUCAACUAUGACACGCAAAACGCGUGCUCCGUUGAAUGGAUUUUAUCAUG [C38A G94U G143U], the “polymerase ribozyme fitness (log ratio)” value is at most -4.2.

As for GGAUCUUCUCGAUCUAACAAAAAAGACAAAUCUGCCAAAAAGCUUGAGAGCAUUUUCGGAUGCAGAGGCGGCUGCCUUCGGUGGCGCGAUAGCGCCAACGUUCUCAACUAUGACACGCAAAACGCGUGCUCCGUUGAAUGGAGUUUAUCAUG [C38A C54U A73U], the “polymerase ribozyme fitness (log ratio)” value is -2.15.

In the case of GGAUCUUCUCGAUCUAACAAAAAAGACAAAUCUGCCAAAAACCUUGAGAGCAUCGUCGGAUGCAGAGGUGGCAGCCUUCGGUGGCGCGAGAGCGCCAACGUUCUCAACUAUGACACGCAAAACGCGUGCUCCGUUGAAUGGAGUUCAUCAUG [C38A G42C U55G C69U U90G U146C], the “polymerase ribozyme fitness (log ratio)” value was at most -4.2.

As for GGAUCUUCUCGAUCUAACAAAAAAGACAAAUCUGCCAAAAAGCUUGAGAGCAUCUUCGGAUGCAGAGGCGGCAGCAUUCGGUGGCGCGAUAGUGCCAACGUUCUCAACUAUGACACACAAAACGCGUGCUCCGUUGAAUGGAGUUUAUCAUG [C38A C76A C93U G117A], the “polymerase ribozyme fitness (log ratio)” value was -1.25.

In the case of GGAUCUUCUCGAUCUAACAAAAAAGACAAAUCUGCCAAAAAGCUUGAGAGCAUCUUCGGAUGCAGAGGCGGCAGCUUUCGGUGGCGCGAUAGCGCCAACGUUCUCAACUGUGGCACGCAAAACGCGUGCUCCGUUGAAUGGAGUUUAUCAUA [C38A C76U A110G A113G G152A], the “polymerase ribozyme fitness (log ratio)” value was at most -4.2.

GGAUCUUCUCGAUCUAACAAAAAAGACAAAUCUGCCAAAAAGGUUGAGAGCAUCUUCGGAUGCAGAGGCGGCAGCCUUCGGUGGCGCGAUAGCGCCAACGUUCUGAACUAUGACAUGCAAAACGCGUGCUCCGUUGAAUGGAGUUUAUCAUG [C38A C43G C105G C116U]: the “polymerase ribozyme fitness (log ratio)” value is at most -4.2.

In the case of GGAUCUUCUCGAUCUAACAAAAAAGACAAAUCUGCCAAAAAGCUUGAGAGCAUCUUCGGAUGCAGAGGCGGCAGCCUUCGGUGGCGCGAUAGCGCCAACGUUCUCAACUAUGACACGCAAAUCGCGUGCUCCGUUGGAUGUGGUUUAUCAUG [C38A A122U A137G G141U A142G], the “polymerase ribozyme fitness (log ratio)” value was -3.83.

For the variant GGAUCUUCUCGAUCUAACAAAAAAGACAAAUCUGCCAAAAAGCUUGAGAGCAUCUUCGGAUGCAGAGGCGGCAGCCUUCGGUGACCCGAUAGCGCCAACGUUCUCAACUAUGACACUCAAAACGCGUGCUCCGUUGAAUGGAGUUUAUCAUG [C38A G84A G86C G117U], the “polymerase ribozyme fitness (log ratio)” value is at most -4.2.
